Biological target: T1, meltrin α (Homo sapiens, UniProt O43184, E208G/T209S)
T1 construct: had been converted to mature meltrin α having the prodomain deleted (molecular weight 68 kDa); made in house; host or cells: COS-1
T1 sequence (O43184 208-738 isoform O43184-2 E208G/T209S): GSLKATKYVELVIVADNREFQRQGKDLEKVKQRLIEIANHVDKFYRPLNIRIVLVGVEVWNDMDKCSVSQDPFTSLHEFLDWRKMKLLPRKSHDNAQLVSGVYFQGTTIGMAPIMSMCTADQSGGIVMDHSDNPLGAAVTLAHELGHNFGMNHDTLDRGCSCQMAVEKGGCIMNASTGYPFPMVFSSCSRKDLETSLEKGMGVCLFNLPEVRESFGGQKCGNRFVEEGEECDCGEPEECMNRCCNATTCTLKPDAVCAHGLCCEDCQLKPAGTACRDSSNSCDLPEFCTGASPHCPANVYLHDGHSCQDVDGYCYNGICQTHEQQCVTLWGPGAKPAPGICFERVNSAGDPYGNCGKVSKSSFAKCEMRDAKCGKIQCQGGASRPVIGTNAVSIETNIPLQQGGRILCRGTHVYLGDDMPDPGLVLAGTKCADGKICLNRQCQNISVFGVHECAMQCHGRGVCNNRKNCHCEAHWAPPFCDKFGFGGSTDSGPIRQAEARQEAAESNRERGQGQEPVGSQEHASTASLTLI
Experiment: Inhibition of protease activity of meltrin α (rhIGF-BP3 cleavage, western blotting)
Assay type: biochemical
Conditions: antibody 300 μg/mL; rhIGF-BP3 band
Method: Thrombin (Amersham Biosciences) was added to the purified meltrin α-STFLAG prepared in Example 5, and mixture was kept at 25° C. for 15 hours. When the solution after the reaction was examined by repeating the procedure of Example 5, the human meltrin α containing the prodomain (molecular weight 92 kDa) had been converted to mature meltrin α having the prodomain deleted (molecular weight 68 kDa). For measuring the enzymatic activity of the meltrin α, the solution after the prodomain cleavage with thrombin followed by inactivation of the thrombin by 10 mM APMSF (Wako Pure Chemical Industries, Ltd.) was used. The disappearance of the thrombin activity was confirmed by using the synthetic substrate for the thrombin on the reaction solution. […]
The anti-human meltrin α antibodies produced in Examples 6 and 7 were evaluated on their activity for inhibiting protease activity of meltrin α by using the protease activity assay system of Example 9. […] After the reaction, the reaction solution was electrophoresed by SDS-PAGE, and the rhIGF-BP3 was detected by western blotting.
According to the method of Example 9, activity of the low molecular weight compound for inhibiting protease activity of the meltrin α was assayed as described below. […] After the reaction, the reaction solution was electrophoresed by SDS-PAGE, and the rhIGF-BP3 was detected by western blotting.

B1: F1196-113-1: anti-meltrin α monoclonal antibody clone (antibody, V domains shown)
VH: EVKLLESGGGLVQPGGSLKLSCAASGFDFSRYWMSWVRQAPGKGLEWIGEINPDSSTINYTPSLKDKFIISRDNAKNTLYLHMSKVRSEDTALYYCARPDSYYRYYAMDYWGQGTSVTVSSAKTTA
VL: DIQMTQTTSSLSASLGDRVTISCRASQDISNYLNWYQQKPDGTVKLLIYYTSRLHSGVPSRFSGSGSGTDYSLTISNQEQEDIATYFCQQGNTLPYTFGGGTKLEIKR
- activity for inhibiting protease activity of meltrin α: inhibitory activity for the meltrin α protease activity has been confirmed
